The series can be described thus: label from the status in PepcDB records.

“METKANYTIVGIFTLIVIAAAFGFVYWMAEFGRGGPTAQLVVRIPGSANGLSVGSPVRFNGIPVGTVRGLAIDRDDPAYSIAFTEVQADAPVFPSTRAVLEIQGLTGAAYIELSGGNKDGERILQKSVESGVPAELTADLSSVTNLLATADKILKRADGAIGELQGFVQDARGPLTQTVRNAEKFSDALAANSDGIKNFIASLSSLSTTVQSVSVRLDGTLTAVENLVKAVDAGKIDSILSNVDKVTKDVASASSDIQGIMETVQSTARNFEAASTEVQTVVKRADELLASVDPAKVSTVVGDVSAATADARDAVANFKRIADDVGARRADIDQAVSDFTEMGRKLNLASSRVDGILAKVDGMLGTDDANSLFAKARETLTSFKAVADNLNARIGPIADNLTRFSSSGLKDFQALIGSTRQTVDNLNNAITNIDRDPQRLIFGGETVKQYDGRTRRLEHHHHHH”: the protein production entry is on record as “failed”.
As to “METKCELNNTKKVANAFGLNEEDTNLLINAVDLDIKNNMQEISSELQQSEQSKQKQLGTTLQNLAKQNRIIK”, the protein production entry was “failed”.
With “METLELFKVISRWLFLLSIGYYLLTNLQWYSYKIERVFFKHHKWRWHILYFFMPILFFFLLGDYFYIYLYVAQLPGVMLWAKKLDKPLIFTGRVKRFFAIYAGFMLFSELLCTTTGGECDKVLYLFPLFFTILITYVLERVLLNRYATAAKDKLASMPNLTIIAITGSYGKTSLKNFLAQILNDNFKVHASPRSVNTFAGIVADINENLSPLSDIYIAEAGARTRGDIKEIGVLLEHHYGIVGKVGEQHMEYFRTLENVRETKFELAQSPRLKELFSYEGNTPPSGIKATSFPTETRNIKATLKGTSFEMLIEGQFYPFETEVLGEFNVTNISAAILVALRLGIPIEKIQRQVARLKPIPHRLQKMEVNLKLILDDSFNGNLEGMLEAIRLSSLYYGRKVIVTPGLVESTEEANTTLAQAINETFDIAILTGELNLKTLSAHIQKPQKVVVKEKEALEEVLKATTREGDLILFANDAPSYI” the entry was “failed”; with “METQDHTLYVLLGPTGVGKTDLSLDIAERLGSPIISADSRQIFRELPIGTAAPTPEQRAKVPHLFVGTHSVRDYYSAGMYEVEVLEALKELFRKYRGVLLTGGSMMYIDAVCRGIDDIPDPFPEVREELYARYAAEGLDGILAQLRLLDPDYYAKVDRRNYKRVIHGLEICLSTGRPFSSFHRHEAKERPFRIVKIGLYREREELCKRIDARVLEMMEQGLEEEARAVYPLRHLNALNTVGYKEMFEYFDGSIDRAEAVRRIQRNSRVYARKQMTWFRRDSTIRWFHPEADKGTVLTLVT”, “failed”.
For “METRAHHVLIGLFSVIVIGAALLFGLWLAKSGSEGKFNYYDIVFNEAVSGLSQGSSVQYSGIKVGDVAFLRLDPKDPRKVWARIRVVASAPIKQDTTAKLALTGITGTSIIQLSSGTPASPMLEGKDGKIPVIVATPSPLTQLLSNGEDLMGNINQLIARFSNLLSEENTARISRTLDHLDQATGALSAERENVSAVMQQLAQASRQANAALAQASELMRSANGLLNEQGKGMLENANKTMASLERTSATLDQLISENRHSLDGGIQGLAELGPAVSELRDTLAALRGISRRLEENPANYLLGREKTKEFTP”, the protein production result was “failed”.
With “METRASYILVGVFTLLAVTGALAFVLWTAGRGEGKAMAAYDVHFSGNVMGLSVASDVFFNGVKVGAVKQITLNPDDPAKVKVRIEIDATTPVREDSVASLEGRGLTGVSVVQITGGSPHAPLLVGTAGEVPVIASRASRLEELFAGMPQLVGSGNELVNRLADVLNAENRAALASTFHALDTVTARMAARADSLDRIITNMDTTTRRLANASAGLETLAGDMRDLTRGDMRDSIVAVGNTARRLDALLAAAEPGVTGFSTEGLEDMRRLLIESRHLVTTLNRMAQRMESDPRRFMFGNQLPEYEER” the entry was “failed”; with “METRTLEDWRALLEAEKTLDSGVYNKHDLLIVRGQGARVWDAEGNEYIDCVGGYGVANLGHGNPEVVEAVKRQAETLMAMPQTLPTPMRGEFYRTLTAILPPELNRVFPVNSGTEANEAALKFARAHTGRKKFVAAMRGFSGRTMGSLSVTWEPKYREPFLPLVEPVEFIPYNDVEALKRAVDEETAAVILEPVQGEGGVRPATPEFLRAAREITQEKGALLILDEIQTGMGRTGKRFAFEHFGIVPDILTLAKALGGGVPLGAAVMREEVARSMPKGGHGTTFGGNPLAMAAGVAAIRYLERTRLWERAAELGPWFMEKLRAIPSPKIREVRGMGLMVGLELKEKAAPYIARLEKEHRVLALQAGPTVIRFLPPLVIEKEDLERVVEAVRAVLA”, “not failed”; with “METTSVFRADFLSELDAPAQAGTESAVSGVEGLPPGSALLVVKRGPNAGSRFLLDQAITSAGRHPDSDIFLDDVTVSRRHAEFRLENNEFNVVDVGSLNGTYVNREPVDSAVLANGDEVQIGKFRLVFLTGPKQGEDLEHHHHHH”, “failed”.

For the origin of these results see a protein production outcome set (Wang et al. 2014).
